Results as given in publication PMC6883073, “Unraveling Determinants of Affinity Enhancement in Dimeric Aptamers for a Dimeric Protein”.

Key:
VEGF-165 [1] = biological target: T1, VEGF-165 (UniProt P15692-4 27-191); test: EMSA; 10 nM VEGF-165; PBS + 0.005% Tween 20, pH 7.4 (+50 mM KCl for aptamer B); 2.5 nM aptamer heated at 90 C and cooled, 1 h incubation (temperature not stated, RT?); 7.5% PAGE in 0.5x TB pH 8.3 at 4 C; details: protein: recombinant; tags: His-tag; chain copies: 2; label: 5' fluorescein
VEGF-165 [2] = biological target: T1, VEGF-165; test: as above; details: protein: recombinant; tags: His-tag; chain copies: 2; label: 5' fluorescein; remark: listed apart in the source
VEGF-165 [3] = biological target: T1, VEGF-165; test: EMSA; PBS + 0.005% Tween 20, pH 7.4 (+50 mM KCl for aptamer B); 2.5 nM aptamer heated at 90 C and cooled, 1 h incubation (temperature not stated, RT?); 7.5% PAGE in 0.5x TB pH 8.3 at 4 C; details: protein: recombinant; tags: His-tag; chain copies: 2; label: 5' fluorescein
VEGF-165 [4] = biological target: T1, VEGF-165; test: EMSA; middle + top bands combined; PBS + 0.005% Tween 20, pH 7.4 (+50 mM KCl for aptamer B); 2.5 nM aptamer heated at 90 C and cooled, 1 h incubation (temperature not stated, RT?); 7.5% PAGE in 0.5x TB pH 8.3 at 4 C; details: protein: recombinant; tags: His-tag; chain copies: 2; label: 5' fluorescein
VEGF-165 [5] = biological target: T1, VEGF-165; test: EMSA; top band only (1 aptamer:2 protein), apparent; PBS + 0.005% Tween 20, pH 7.4 (+50 mM KCl for aptamer B); 2.5 nM aptamer heated at 90 C and cooled, 1 h incubation (temperature not stated, RT?); 7.5% PAGE in 0.5x TB pH 8.3 at 4 C; details: protein: recombinant; tags: His-tag; chain copies: 2; label: 5' fluorescein
VEGF-165 [6] = biological target: T1, VEGF-165; test: competition; displaces fC; 50 nM VEGF-165; PBS + 0.005% Tween 20, pH 7.4 (+50 mM KCl for aptamer B); 2.5 nM aptamer heated at 90 C and cooled, 1 h incubation (temperature not stated, RT?); 7.5% PAGE in 0.5x TB pH 8.3 at 4 C; details: protein: recombinant; tags: His-tag; chain copies: 2
VEGF-165 [7] = biological target: T1, VEGF-165; test: EMSA; curve superimposed on AT10C; PBS + 0.005% Tween 20, pH 7.4 (+50 mM KCl for aptamer B); 2.5 nM aptamer heated at 90 C and cooled, 1 h incubation (temperature not stated, RT?); 7.5% PAGE in 0.5x TB pH 8.3 at 4 C; details: protein: recombinant; tags: His-tag; chain copies: 2; label: 5' fluorescein
VEGF-165 [8] = biological target: T1, VEGF-165; test: competition; displaces fA; 10 nM VEGF-165; PBS + 0.005% Tween 20, pH 7.4 (+50 mM KCl for aptamer B); 2.5 nM aptamer heated at 90 C and cooled, 1 h incubation (temperature not stated, RT?); 7.5% PAGE in 0.5x TB pH 8.3 at 4 C; details: protein: recombinant; tags: His-tag; chain copies: 2
VEGF-121 = VEGF-121 (UniProt P15692-9 27-147); test: EMSA; up to 333.3 nM VEGF-121; PBS + 0.005% Tween 20, pH 7.4 (+50 mM KCl for aptamer B); 2.5 nM aptamer heated at 90 C and cooled, 1 h incubation (temperature not stated, RT?); 7.5% PAGE in 0.5x TB pH 8.3 at 4 C; details: protein: recombinant; tags: His-tag; chain copies: 2; label: 5' fluorescein
VEGF-121, sequence (P15692 other isoform, or with tags, fused parts or gaps): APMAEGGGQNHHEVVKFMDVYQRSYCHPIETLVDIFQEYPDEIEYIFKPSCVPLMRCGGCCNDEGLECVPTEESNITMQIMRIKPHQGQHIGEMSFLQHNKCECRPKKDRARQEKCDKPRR

T1 sequence (P15692 other isoform, or with tags, fused parts or gaps): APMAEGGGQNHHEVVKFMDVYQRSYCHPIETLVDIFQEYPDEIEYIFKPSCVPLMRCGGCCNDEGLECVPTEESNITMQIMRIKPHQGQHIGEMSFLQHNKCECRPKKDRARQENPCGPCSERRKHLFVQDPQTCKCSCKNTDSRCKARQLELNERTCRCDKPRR

B1: CT30C (structured_DNA)
DNA: CAATTGGGCCCGTCCGTATGGTGGGTTTTTTTTTTTTTTTTTTTTTTTTTTTTTTTCAATTGGGCCCGTCCGTATGGTGGGT
binding signal (VEGF-165 [1]): ~0.35 fraction bound

B2: AT30C (structured_DNA)
DNA: GCCCGTCTTCCAGACAAGAGTGCAGGGCTTTTTTTTTTTTTTTTTTTTTTTTTTTTTTCAATTGGGCCCGTCCGTATGGTGGGT
binding result (VEGF-165 [2]): binds

CAATTGGGCCCGTCCGTATGGTGGGT (structured_DNA) [fC (SL2-B)]
Kd (VEGF-165 [3]): 37.9 ± 14 nM

B3: AT10C (structured_DNA)
DNA: GCCCGTCTTCCAGACAAGAGTGCAGGGCTTTTTTTTTTCAATTGGGCCCGTCCGTATGGTGGGT
Kd (VEGF-165 [4]): 12.1 ± 1.9 nM | Kd (VEGF-165 [5]): 87.3 ± 4.9 nM

B4: CT10C (structured_DNA)
DNA: CAATTGGGCCCGTCCGTATGGTGGGTTTTTTTTTTTCAATTGGGCCCGTCCGTATGGTGGGT
binding signal (VEGF-165 [1]): ~0.35 fraction bound

B5: CT0A (structured_DNA)
DNA: CAATTGGGCCCGTCCGTATGGTGGGTGCCCGTCTTCCAGACAAGAGTGCAGGGC
binding result (VEGF-165 [2]): binds

B6: CT20A (structured_DNA)
DNA: CAATTGGGCCCGTCCGTATGGTGGGTTTTTTTTTTTTTTTTTTTTTGCCCGTCTTCCAGACAAGAGTGCAGGGC
binding result (VEGF-165 [2]): binds

B7: AT60A (structured_DNA)
DNA: GCCCGTCTTCCAGACAAGAGTGCAGGGCTTTTTTTTTTTTTTTTTTTTTTTTTTTTTTTTTTTTTTTTTTTTTTTTTTTTTTTTTTTTGCCCGTCTTCCAGACAAGAGTGCAGGGC
Kd (VEGF-165 [3]): 7 ± 1.5 nM

B8: AT20A (structured_DNA)
DNA: GCCCGTCTTCCAGACAAGAGTGCAGGGCTTTTTTTTTTTTTTTTTTTTGCCCGTCTTCCAGACAAGAGTGCAGGGC
Kd (VEGF-165 [4]): 5.5 ± 0.9 nM | Kd (VEGF-165 [5]): 145 ± 11.6 nM

B9: nfCT100 (structured_DNA)
DNA: CAATTGGGCCCGTCCGTATGGTGGGTTTTTTTTTTTTTTTTTTTTTTTTTTTTTTTTTTTTTTTTTTTTTTTTTTTTTTTTTTTTTTTTTTTTTTTTTTTTTTTTTTTTTTTTTTTTTTTTTT
binding result (VEGF-165 [6]): binds

B10: AT60C (structured_DNA)
DNA: GCCCGTCTTCCAGACAAGAGTGCAGGGCTTTTTTTTTTTTTTTTTTTTTTTTTTTTTTTTTTTTTTTTTTTTTTTTTTTTTTTTTTTTCAATTGGGCCCGTCCGTATGGTGGGT
binding result (VEGF-165 [7]): binds

B11: AT20C (structured_DNA)
DNA: GCCCGTCTTCCAGACAAGAGTGCAGGGCTTTTTTTTTTTTTTTTTTTTCAATTGGGCCCGTCCGTATGGTGGGT
binding result (VEGF-165 [2]): binds

B12: nfAT100 (structured_DNA)
DNA: GCCCGTCTTCCAGACAAGAGTGCAGGGCTTTTTTTTTTTTTTTTTTTTTTTTTTTTTTTTTTTTTTTTTTTTTTTTTTTTTTTTTTTTTTTTTTTTTTTTTTTTTTTTTTTTTTTTTTTTTTTTTTTT
binding result (VEGF-165 [8]): binds

B13: AT0C (structured_DNA)
DNA: GCCCGTCTTCCAGACAAGAGTGCAGGGCCAATTGGGCCCGTCCGTATGGTGGGT
binding result (VEGF-165 [2]): binds

B14: CT60C (structured_DNA)
DNA: CAATTGGGCCCGTCCGTATGGTGGGTTTTTTTTTTTTTTTTTTTTTTTTTTTTTTTTTTTTTTTTTTTTTTTTTTTTTTTTTTTTTCAATTGGGCCCGTCCGTATGGTGGGT
Kd (VEGF-165 [3]): 22.4 ± 1 nM

GCCCGTCTTCCAGACAAGAGTGCAGGGC (structured_DNA) [fA (+5'GC+3'C)]
binding result (VEGF-121): no binding | Kd (VEGF-165 [3]): 9.9 ± 1.3 nM

B15: CT30A (structured_DNA)
DNA: CAATTGGGCCCGTCCGTATGGTGGGTTTTTTTTTTTTTTTTTTTTTTTTTTTTTTTGCCCGTCTTCCAGACAAGAGTGCAGGGC
binding result (VEGF-165 [2]): binds

B16: CT0C (structured_DNA)
DNA: CAATTGGGCCCGTCCGTATGGTGGGTCAATTGGGCCCGTCCGTATGGTGGGT
Kd (VEGF-165 [4]): 13.6 ± 2.7 nM | binding signal (VEGF-165 [1]): ~0.35 fraction bound | Kd (VEGF-165 [5]): 74.8 ± 3.5 nM

B17: CT10A (structured_DNA)
DNA: CAATTGGGCCCGTCCGTATGGTGGGTTTTTTTTTTTGCCCGTCTTCCAGACAAGAGTGCAGGGC
binding result (VEGF-165 [2]): binds

B18: CT20C (structured_DNA)
DNA: CAATTGGGCCCGTCCGTATGGTGGGTTTTTTTTTTTTTTTTTTTTTCAATTGGGCCCGTCCGTATGGTGGGT
binding signal (VEGF-165 [1]): ~0.35 fraction bound
